From patent US20190282704A1 (ZOETIS SERVICES, published 2019)
Bridges are numbered along the chain shown (N, C = ends). Where no end group is shown, it is not given here. mT2a = not defined here

B2: ZTS-361 (antibody)
heavy: QVLLVQSGAEVRTPGASVKIFCKASGYSFTSYTIHWLRQAPAQGLEWMGNINPTSGYTENNQRFKDRLTLTADTSTNTAYMELSSLRSADTAMYYCARWGFKYDGEWSFDVWGAGTTVTVSSASTTAPSVFPLAPSCGTTSGATVALACLVLGYFPEPVTVSWNSGALTSGVHTFPAVLQASGLYSLSSMVTVPSSRWLSDTFTCNVAHPPSNTKVDKTVRKTDHPPGPKPCDCPKCPPPEAAGAPSIFIFPPKPKDTLSISRTPEVTCLVVDLGPDDSDVQITWFVDNTQVYTAKTSPREEQFNSTYRVVSVLPILHQDWLKGKEFKCKVNSKSLPSPIERTISKAKGQPHEPQVYVLPPAQEELSRNKVSVTCLIKSFHPPDIAVEWEITGQPEPENNYRTTPPQLDSDGTYFVYSKLSVDRSHWQRGNTYTCSVSHEALHSHHTQKSLTQSPGK
light: EIQMTQSPSSLSASPGDRVTITCRASQGISIWLSWYQQKPGNIPKVLINKASNLHIGVPSRFSGSGSGTDFTLTISSLEPEDAATYYCLQSQTYPLTFGGGTKLEIKRSDAQPSVFLFQPSLDELHTGSASIVCILNDFYPKEVNVKWKVDGVVQNKGIQESTTEQNSKDSTYSLSSTLTMSSTEYQSHEKFSCEVTHKSLASTLVKSFQRSECQRE
B5: Peptide ZTS-562 (peptide)
peptide: CEISVPADTFERKSFC
modifications: constrained through the terminal cysteines; linker only shown in FIG. 13A
B9: Peptide ZTS-563 (peptide)
peptide: CAKVSMPADNFERKNFILTC
modifications: linker 1-20 via mT2a; reading uncertain

Experiments:
Peptide ZTS-563 = target: B9; test: Biacore, peptide ZTS-563 immobilised on the surface
Peptide ZTS-562 = target: B5; test: Biacore, peptide ZTS-562 immobilised on the surface
Peptide ZTS-564 = target: T1, Peptide ZTS-564 (terminal cysteines constrained with the mT2b linker (CLIPS)); test: Biacore, peptide ZTS-564 immobilised on the surface
T1 peptide: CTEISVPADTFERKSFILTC

Peptide ZTS-561 = target: T2, Peptide ZTS-561 (terminal cysteines constrained with the mT2a linker (CLIPS)); test: Biacore, peptide ZTS-561 immobilised on the surface
T2 construct: Unconjugated constrained peptide; also called canine IL-31 15H05 mimotope ZTS-561

[1] = target: T3, canine IL-31 (Canine_IL31) (canine); test: cell-based or functional assay
T3 chain: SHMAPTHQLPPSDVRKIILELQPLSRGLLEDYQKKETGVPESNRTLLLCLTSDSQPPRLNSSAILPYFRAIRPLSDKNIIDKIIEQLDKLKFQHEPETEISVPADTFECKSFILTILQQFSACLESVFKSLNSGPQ

[2] = target: T4, equine IL-31 (Equine_IL31) (equine); test: Biacore, IL-31 surface, single antibody concentration
T4 construct: Production of the protein used as Biacore surface is not described; also called horse IL-31
T4 chain: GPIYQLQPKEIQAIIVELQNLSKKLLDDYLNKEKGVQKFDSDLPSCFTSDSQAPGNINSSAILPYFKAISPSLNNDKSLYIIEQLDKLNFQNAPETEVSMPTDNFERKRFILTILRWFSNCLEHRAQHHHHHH

human IL-31 = target: T5, human IL-31 (human, UniProt Q6EBC2 24-164); test: as above
T5 construct: Production of the protein used as Biacore surface is not described
T5 sequence: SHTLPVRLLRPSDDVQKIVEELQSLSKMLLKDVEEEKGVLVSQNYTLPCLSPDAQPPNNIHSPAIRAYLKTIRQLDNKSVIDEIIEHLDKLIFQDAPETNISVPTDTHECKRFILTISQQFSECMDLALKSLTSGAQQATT

ZTS-361 = target: B2; test: cell-based or functional assay

B1: ZTS-927 (antibody)
heavy: QVLLVQSGAEVRTPGASVKIFCKASGYSFTSYTIHWLRQAPAQGLEWMGNINPTSGYTENNQRFKDRLTLTADTSTNTAYMELSSLRSADTAMYYCARWGFKYDGEWSFDVWGAGTTVTVSSASTTAPSVFPLAPSCGTTSGATVALACLVLGYFPEPVTVSWNSGALTSGVHTFPAVLQASGLYSLSSMVTVPSSRWLSDTFTCNVAHPPSNTKVDKTVRKTDHPPGPKPCDCPKCPPPEMLGGPSIFIFPPKPKDTLSISRTPEVTCLVVDLGPDDSDVQITWFVDNTQVYTAKTSPREEQFNSTYRVVSVLPILHQDWLKGKEFKCKVNSKSLPSPIERTISKAKGQPHEPQVYVLPPAQEELSRNKVSVTCLIKSFHPPDIAVEWEITGQPEPENNYRTTPPQLDSDGTYFVYSKLSVDRSHWQRGNTYTCSVSHEALHSHHTQKSLTQSPGK
light: EIQMTQSPSSLSASPGDRVTITCRASQGISIWLSWYQQKPGNIPKVLINKASNLHIGVPSRFSGSGSGTDFTLTISSLEPEDAATYYCLQSQTYPLTFGGGTKLEIKRSDAQPSVFLFQPSLDELHTGSASIVCILNDFYPKEVNVKWKVDGVVQNKGIQESTTEQNSKDSTYSLSSTLTMSSTEYQSHEKFSCEVTHKSLASTLVKSFQRSECQRE
Kd (Peptide ZTS-563): 1.48 nM | Kd (Peptide ZTS-562): 2.78 nM | Kd (Peptide ZTS-564): 4.13 nM | Kd (Peptide ZTS-561): 1.02 nM | IC50, inhibition of canine IL-31-induced STAT3 phosphorylation, canine DH82 cells [1]: 23.2 µg/mL | IC50, inhibition of canine IL-31-induced STAT3 phosphorylation, feline FCWF4 cells [1]: 39.6 µg/mL

B2
IC50, inhibition of canine IL-31-induced STAT3 phosphorylation, canine DH82 cells [1]: 23 µg/mL | IC50, inhibition of canine IL-31-induced STAT3 phosphorylation, feline FCWF4 cells [1]: 38.8 µg/mL

B3: mouse anti IL-31 antibody 11E12 (antibody, V domains shown)
VH: QVQLQQSGAELVKPGASVKLSCKASGYTFKYYDINWVRQRPEQGLEWIGWIFPGDGGTKYNETFKGKATLTTDKSSSTAYMQLSRLTSEDSAVYFCARGGTSVIRDAMDYWGQGTSVTVSS
VL: DIVLTQSPASLAVSLGQRATISCRASESVDNYGISFMHWYQQKPGQPPKLLIYRASNLESGIPARFSGSGSRTDFTLTINPVETDDVATYYCQQSNKDPLTFGAGTKLELK
notes: Mouse monoclonal used for comparison; also called Mu-11E12; MU-11E12
binding result [2]: no binding | binding result (human IL-31): no binding

B4: ZIL159 (antibody, V domains shown)
VH: EVQLVESGGDLVKPAGSLRLSCVASGFTFSSYVMTWVRQAPGKGLQWVAGINSEGSRTAYADAVKGRFTISRDNAKNTLYLQIDSLRAEDTAIYYCATGDIVATGTSYWGQGTLVTVSS
VL: SNVLTQPPSVSVSLGQTATISCSGETLNRFYTQWFQQKAGQAPVLVIYKDTERPSGIPDRFSGSSSGNIHTLTISGARAEDEAAYYCKSAVSIDVGVFGGGTHLTVFR
notes: Recombinant fully canine IgG (65_1 isotype); also called CAN-ZIL159
binding result [2]: no binding

B5
IC50 of peptide blocking mAb ZTS-361 inhibition of feline IL-31 mediated STAT3 phosphorylation in FCWF-4 cells, unconjugated (ZTS-361): 1.05 µg/mL

B6: ZIL69 (antibody, V domains shown)
VH: EVQLVESGGDLVKPAGSLRLSCVASGFTFSSYAMKWVRQAPGKGLQWVATINNDGTRTGYADAVRGRFTISKDNAKNTLYLQMDSLRADDTAVYYCTKGNAESGCTGDHCPPYWGQGTLVTVSS
VL: SSVLTQPPSVSVSLGQTATISCSGESLNKYYAQWFQQKAGQAPVLVIYKDTERPSGIPDRFSGSSAGNTHTLTISGARAEDEADYYCESAVSSETNVFGSGTQLTVLR
notes: Recombinant fully canine IgG (65_1 isotype); also called CAN-ZIL69
binding result [2]: no binding

B7: ZIL171 (antibody, V domains shown)
VH: EVQLVESGGDLVKPAGSLRLSCVASGFTFRTYVMNWVRQAPGKGLQWVASINGGGSSPTYADAVRGRFTVSRDNAQNSLFLQMNSLRAEDTAIYFCVVSMVGPFDYWGHGTLVTVSS
VL: SSVLTQPPSVSVSLGQTATISCSGKSLSYYYAQWFQQKAGQAPVLVIYKDTERPSGIPDRFSGSSSGNTHTLTISGARAEDEADYYCESAVSSDTIVFGGGTHLTVLR
notes: Recombinant fully canine IgG (65_1 isotype); also called CAN-ZIL171
binding result [2]: no binding

B8: ZIL94 (antibody, V domains shown)
VH: EVQLVDSGGDLVKPGGSLRLSCVASGFTFSTYFMSWVRQAPGRGLQWVALISSDGSGTYYADAVKGRFTISRDNAKNTLYLQMNSLRAEDTAMYYCAIFWRAFNDWGQGTLVTVSS
VL: QTVVIQEPSLSVSPGGTVTLTCGLNSGSVSTSNYPGWYQQTRGRTPRTIIYDTGSRPSGVPNRFSGSISGNKAALTITGAQPEDEADYYCSLYTDSDILVFGGGTHLTVLR
notes: Recombinant fully canine IgG (65_1 isotype); also called CAN-ZIL94
binding result [2]: no binding

B9
IC50 of peptide blocking mAb ZTS-361 inhibition of feline IL-31 mediated STAT3 phosphorylation in FCWF-4 cells, unconjugated (ZTS-361): 1.74 µg/mL

B10: ZIL154 (antibody, V domains shown)
VH: EVHLVESGGDLVKPWGSLRLSCVASGFTFSDRGMSWVRQSPGKGLQWVAYIRYDGSRTDYADAVEGRFTISRDNAKNTLYLQMNSLRAEDTAVYYCARWDGSSFDYWGQGTLVTVSS
VL: DIVVTQTPLSLSVSPGETASFSCKASQSLLHSDGNTYLDWFRQKPGQSPQRLIYKVSNRDPGVPDRFSGSGSGTDFTLRISGVEADDAGLYYCMQAIHFPLTFGAGTKVELKR
notes: Recombinant fully canine IgG (65_1 isotype); also called CAN-ZIL154
binding result [2]: no binding | binding result (human IL-31): no binding

B11: mouse anti IL-31 antibody 15H05 (antibody, V domains shown)
VH: QVQLQQSAAELARPGASVKMSCKTSGYTFTSYTIHWIKQRPGQGLEWIGNINPTSGYTENNQRFKDKTTLTVDRSSNTAYLQLHSLTSEDSAVYFCARWGFKYDGEWSFDVWGAGTTVTVSS
VL: DIQMNQSPSSLSASLGDTITVTCRASQGISIWLSWYQQKPGNIPKVLINKASNLHIGVPPRFSGSGSGTHFTLTITSLQPEDIATYYCLQSQTYPLTFGGGTKLEIN
notes: Mouse hybridoma monoclonal; also called Mu-15H05; MU-15H05
binding result [2]: binds | binding result (human IL-31): no binding
